From patent CN111153992A (BEIJING CHEST HOSPITAL CAPITAL MEDICAL UNIV; BEIJING …, dated 2020)

Assays:
Assay in all cases: indirect ELISA, recombinant protein coated on plate
[1] = target: T1, 结核分枝杆菌特异性重组蛋白EspC (Mycobacterium tuberculosis, UniProt P9WJD7 1-103)
T1 sequence (looked up): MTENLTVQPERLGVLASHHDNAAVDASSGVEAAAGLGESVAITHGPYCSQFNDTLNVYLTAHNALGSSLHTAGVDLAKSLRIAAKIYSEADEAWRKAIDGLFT

[2] = target: T2, 结核分枝杆菌特异性重组蛋白MPT32 (Mycobacterium tuberculosis, UniProt P9WIR7 40-325)
T2 sequence (looked up): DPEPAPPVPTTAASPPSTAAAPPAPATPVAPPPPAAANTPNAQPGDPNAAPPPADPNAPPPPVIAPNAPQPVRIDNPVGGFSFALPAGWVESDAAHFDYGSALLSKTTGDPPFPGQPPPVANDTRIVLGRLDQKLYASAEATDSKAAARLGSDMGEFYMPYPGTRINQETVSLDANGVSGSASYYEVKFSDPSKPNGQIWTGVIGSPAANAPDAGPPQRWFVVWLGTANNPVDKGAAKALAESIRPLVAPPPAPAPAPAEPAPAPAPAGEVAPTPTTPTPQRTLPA

[3] = target: T3, 结核分枝杆菌特异性重组蛋白38KD (Mycobacterium tuberculosis, UniProt P9WGU1 24-374)
T3 sequence (looked up): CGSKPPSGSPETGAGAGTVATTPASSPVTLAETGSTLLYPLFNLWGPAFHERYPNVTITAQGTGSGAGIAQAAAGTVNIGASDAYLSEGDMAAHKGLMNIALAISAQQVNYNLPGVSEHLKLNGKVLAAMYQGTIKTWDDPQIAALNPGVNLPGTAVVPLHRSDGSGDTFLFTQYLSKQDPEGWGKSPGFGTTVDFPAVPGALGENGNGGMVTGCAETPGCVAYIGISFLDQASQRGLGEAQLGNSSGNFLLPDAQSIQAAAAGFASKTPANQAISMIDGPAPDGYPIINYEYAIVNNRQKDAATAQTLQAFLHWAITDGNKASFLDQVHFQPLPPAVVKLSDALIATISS

[4] = target: 结核分枝杆菌特异性重组蛋白Mtb81 (Mycobacterium tuberculosis, UniProt P9WK17 1-741)
Sequence of 结核分枝杆菌特异性重组蛋白Mtb81 (P9WK17 whole entry): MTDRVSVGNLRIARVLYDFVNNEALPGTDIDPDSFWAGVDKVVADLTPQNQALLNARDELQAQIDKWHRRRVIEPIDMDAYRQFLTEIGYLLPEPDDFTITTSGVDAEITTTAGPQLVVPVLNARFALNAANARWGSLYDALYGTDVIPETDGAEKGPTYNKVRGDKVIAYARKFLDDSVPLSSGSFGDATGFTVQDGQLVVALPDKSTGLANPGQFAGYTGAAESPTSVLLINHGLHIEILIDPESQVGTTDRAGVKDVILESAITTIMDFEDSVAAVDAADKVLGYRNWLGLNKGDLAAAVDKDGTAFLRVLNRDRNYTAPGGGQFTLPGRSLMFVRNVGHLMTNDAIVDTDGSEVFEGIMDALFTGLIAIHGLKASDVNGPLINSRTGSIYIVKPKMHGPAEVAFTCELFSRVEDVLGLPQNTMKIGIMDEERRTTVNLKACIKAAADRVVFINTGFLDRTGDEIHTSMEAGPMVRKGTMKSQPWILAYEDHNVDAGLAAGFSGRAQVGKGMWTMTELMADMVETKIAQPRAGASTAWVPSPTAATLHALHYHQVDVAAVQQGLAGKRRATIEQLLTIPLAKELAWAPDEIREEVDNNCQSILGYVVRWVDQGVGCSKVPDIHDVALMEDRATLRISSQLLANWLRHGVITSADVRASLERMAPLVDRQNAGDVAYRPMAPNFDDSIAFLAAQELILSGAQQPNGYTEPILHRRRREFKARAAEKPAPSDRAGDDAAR

[5] = target: T4, 结核分枝杆菌特异性重组蛋白MPT64 (Mycobacterium tuberculosis, UniProt P9WIN9 24-228)
T4 sequence (looked up): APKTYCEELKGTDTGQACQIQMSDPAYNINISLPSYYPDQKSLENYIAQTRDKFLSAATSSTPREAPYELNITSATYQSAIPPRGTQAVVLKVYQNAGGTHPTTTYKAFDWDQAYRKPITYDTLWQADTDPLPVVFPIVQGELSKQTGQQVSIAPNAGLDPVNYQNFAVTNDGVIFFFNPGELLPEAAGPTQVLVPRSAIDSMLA

[6] = target: T5, 结核分枝杆菌特异性重组蛋白CFP10 (Mycobacterium tuberculosis, UniProt P9WNK5 1-100)
T5 sequence (looked up): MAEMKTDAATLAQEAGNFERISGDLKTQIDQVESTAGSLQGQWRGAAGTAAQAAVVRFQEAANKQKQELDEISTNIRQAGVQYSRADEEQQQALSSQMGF

B1: BJRbL01 (antibody, V domains shown)
VH: QSVEESGGRLVTPGTSLTLTCTVSGFSLSNYDMGWVRQAPGKGLEWIGNIWSNGYTDYASWVNGRFTISKTSSTTMDLKMTSLTTEDMATYFCARGSSGYVGDIWGPGTLVTVSS
VL: DPVLTQTPASVEVAVGGTVTMNCQASHSVYGNNELSWYQQKPGQPPKLLVYKASTLASGVPSRFKGSGSGTQFTLTISDLECDDAAIYYCQGGYWGNRAFGGGTEVVVKG
notes: also called 兔抗LAM单克隆抗体 BJRbL01; 抗LAM抗体
- binding result [1]: no binding (tested: protein coated at 5μg/ml)
- binding result [2]: no binding (tested: protein coated at 5μg/ml)
- binding result [3]: no binding (tested: protein coated at 5μg/ml)
- binding result [4]: no binding (tested: protein coated at 5μg/ml)
- binding result [5]: no binding (tested: protein coated at 5μg/ml)
- binding result [6]: no binding (tested: protein coated at 5μg/ml)

B2: BJRbL03 (antibody, V domains shown)
VH: QSLEESGGRLVTPGTSLTLTCTVSGFSLRSYDMGWVRQAPGKGLEWIGSIWSNDFTDYASWVNGRFTVSKTSSTTMDLKMTSLTSEDTATYFCVRGSSGYVGDIWGPGTLVTVSS
VL: DPMLTQTASSVSAAVGGTVTINCQASQSVYGNNELSWYQQKPGQPPKLLIYKASTLASGVPSRFKASGSGTQFTLTISDLECDDAAIYYCQGGYWGNRAFGGGTKLEIKG
notes: also called 兔抗LAM单克隆抗体 BJRbL03; 抗LAM抗体
- binding result [1]: no binding (tested: protein coated at 5μg/ml)
- binding result [2]: no binding (tested: protein coated at 5μg/ml)
- binding result [3]: no binding (tested: protein coated at 5μg/ml)
- binding result [4]: no binding (tested: protein coated at 5μg/ml)
- binding result [5]: no binding (tested: protein coated at 5μg/ml)
- binding result [6]: no binding (tested: protein coated at 5μg/ml)
